Measured values taken from the DeepSol protein solubility set.

Assay: soluble on expression in E. coli; label from the status in PepcDB or PDB records

| Sequence | soluble on expression in E. coli |
| --- | --- |
| TNLISVNSRSYRLSSAPTIVICVDGCEQEYINQAIQAGQAPFLAELTGFGTVLTGDCVVPSFTNPNNLSIVTGAPPSVHGICGNFFFDQETQEEVLMNDAKYLRAPTILAEMAKAGQLVAVVTAKDKLRNLLGHQLKGICFSAEKADQVNLEEHGVENILARVGMPVPSVYSADLSEFVFAAGLSLLTNERPDFMYLSTTDYVQHKHAPGTPEANAFYAMMDSYFKRYHEQGAIVAITADHGMNAKTDAIGRPNILFLQDLLDAQYGAQRTRVLLPITDPYVVHHGALGSYATVYLRDAVPQRDAIDFLAGIAGVEAVLTRSQACQRFELPEDRIGDLVVLGERLTVLGSAADKHDLSGLTVPLRSHGGVSEQKVPLIFNRKLVGLDSPGRLRNFDIIDLALNHLA | soluble |
| MSTAFNNIRQGLSEAIAHAKGNVHGVRVHRPRQVDVKAVRAKVGMTQEQFAAQFGFSPATLRHWERGDRTPRGAALVLLNVIDRNPQAVIEALA | not soluble |
| GPGSMADEEDYDFEVNKKETDKIERPERLIEVLQHDTNQTLTEEMVEHAQAVLDFMPVEYTYKDVAAKLKCRLDGAYGGTWHVIVGKHFGANVTNDDDTLINMKINGVYFLAMRSGPPERPQESAENEAVTAE | soluble |
| MGSDKIHHHHHHGKPLRKVDLLADIRPDVEEEVCDSDTIVLPPPVKPIFVDTCKTGITCIEDYSDSTMRGMKHFYEALSKVKTMKRPVRIAYFGDSFIEADIFTADLREMLQQEFGGCGVGYVPVTSSISGYRPTVRHTFGGWSSHSSNDSVGFDKMQQDISGHYFFPREGAYVQLKGQSKYASRLDTCEVSTFYFLNKGFAAVRSKVNNAAEGELHEEVGTGGVQAVSVRGRIGQVRWSVEQADSVTFYGVAMDGRQGISLDNFSVRGSSGLHLRSIPLHTLCDFQRLRPYDLIVVQYGLNVATERGVKYDGYKKGMLSVIEHLKTAFPETSILLVSVGDREYKNENGDLRTMPGVKNLIRYQQSIAADSHIAFWNMYEAMGGQGSIVDMIGQKMANLDYTHINFKGGKHLAGILFETLMYGKEQYERRKAYEEE | not soluble |
| MNLDLTAQKVRLSWKDILWGYGNKYLGWADVAAYARKMTLSDHDERVFKLSLINKSNILELKPVLEDLASEMRDYSPKNWLYVLLSDVFHRKEEFEDPLGEVEKIYADFDYPEEIESFVRYMPPKDGYIPSAHTYEENIARLYSHWEHYLNNGGGQG | not soluble |
| MKVLLANPRGFCAGVDRAIEIVKRTIDMLGTPIYVRHEVVHNRFVVDDLKQRGAIFVEELHQVPDGATVIFSAHGVSQAVRRQAAQRGLKVFDATCPLVTKVHLDVARHCRTGRDMILIGHAGHPEVEGTMGQWDQERGTGRIYLVENIDDVATLHVAQPHHLAYTTQTTLSVDDTRNIIDALRQRFPTIQGPKNNDICYATQNRQDAVRELARECDLVLVVGSPNSSNSNRLSELAQREGVASYLIDSAAEIDPAWVIDKHHIGVTAGASAPQVLVDGVLARLYELGAT | not soluble |
| VRGLLRVVGVRIEPGDHMLAIRDEIAGAIALGHSQGAVEKEDRDRLLGALDLSERTVEEIMRHRSQIEMIDADKPSAEVIAQVLASPHTRIPLYRGDHENILGIIHAKDLLREVSRLMRTGSTGALDELDILAVAMKPYFVPETTPLDEQMRQFLKRRTHFALVVDEYGALKGLITLEDIIEEIVGEINDEFDIAQEMTLKRADTGDYLVDGAMTI | not soluble |
| MSLQNIRFGECINSPYVKPKRVFYTERGIEKSWDVVEAHDSVSVLLFDPKKRAFVLVKQFRPAVFLKGTSGYTYELCAGIVDKPGKSLEVIAQEEILEECGYSLSIDSLERITSFYTSVGFAGSRQTLFYAEVEDSLRQGEGGGVESENIEVVHLPLLEARAFMLDEERPKTPGLLFAFMWFFERHPKNEGHHHHHH | soluble |
| GAMAATAAEAVASGSGEPREEAGALGPAWDESQLRSYSFPTRPIPRLSQSDPRAEELIENEEPVVLTDTNLVYPALKWDLEYLQENIGNGDFSVYSASTHKFLYYDEKKMANFQNFKPRSNREEMKFHEFVEKLQDIQQRGGEERLYLQQTLNDTVGRKIVMDFLGFNWNWINKQQGKRGWGQLTSNLLLIGMEGNVTPAHYDEQQNFFAQIKGYKRCILFPPDQFECLYPYPVHHPCDRQSQVDFDNPDYERFPNFQNVVGYETVVGPGDVLYIPMYWWHHIESLLNGGITITVNFWYKGAPTPKRIEYPLKAHQKVAIMRNIEKMLGEALGNPQEVGPLLNTMIKGRYN | soluble |
| MKIVIAPDSYKESLSALEVATAIEQGFREIWPDADYLKLPLADGGEGTVEAMVEATAGRIVHVEVTGPLGHRVNAFYGLSGDARSAFIEMAAASGLEQVPPAQRDPLKTTSWGTGELIRHALDAGVEHIIIGIGGSATNDGGAGMVQALGARLRDAQGNDIAQGGIGLETLASIDISGLDKRLSACHIEVACDVTNPLTGKEGASAVFGPQKGATPEMIERLDTALTRYAHLIARDLHVDVLDLAGGGAAGGMGAALYAFCGAQLRRGIEIVTDALHLEACLADADLVITGEGRIDSQTIHGKVPIGVANIAKRYNKPVIGIAGSLTADVSVVHEHGLDAVFSVIYTICTLEDALKNASENVRMTARNVAATLKAGQQLR | not soluble |
| MGHHHHHHSHMLVDNLYRVVSNQKDAAVIRVHLEVNASHEIFKGHFPEVPVLPGVCMVQCIKELIEESLLVKTQIDKGDMIKFLSMLNPVESNSIQAEISIKEKTETRIVFQATLKNEDRFLLKYSGSLVVLN | not soluble |
| GSHHPFTAQIVAVTASGYDSEKGHVPANIADGDVKTRWAASGESWVQLELDKEQSIENILIVPFKPTERKLKFSIFYSNDGKNWQPLAEGLETSSADKNGEKLTFTPVTAKYIKLDTFGTDVNNWSAINEIAINSAAALPSRAIK | soluble |
| MGSDKIHHHHHHMSAPRSICLLRLSAIGDTCNAAAVVNAIRQHYPEAEITWVIGKAEAALMAGMDGVNFVVFDKKRGMAAYRNLRRQLQGKRFDALLLMQVALRANLASLCISAKRRIGYDKAKSKELHSLFINERIEPTDKVHVLDNFRQFQKSLGIPLEEPDWNIPVNAEDRGWAKAQLDPNTSKHLIITAAASNTERNWLPDRYAAVADYAASQGFSVYLCGGPADYEKQLAANIQAHAKHSLHNLVGQSSLKQLFALIGEASLVLAPDTGPAHMAVAAGTPVIGLYAHSNPKRTGPYLWQNYVVDAYTPALKQTRGETPEQSRWGQRLKGAELMENITTEQVIDMLDRCIQEQNL | not soluble |
| MSLTMREVAKAAGVSIKTVSNVVNDYEFVSQATRDKVNKAIAELGYTVNVSARNLRRGQTGIIGLAIPDLQMPYFAQLSSLVIEEAKKVGLRVIVEPTQYSRDGELEALHGSQQMMIDGLIYSPLELGQDDVEQLKVDYPLVLVGERIFTDQVDHIATENVEGAKRATQYLLTTGCRRVAVVGVHPGEKVGSAALRYQGYLEALEEAGVEFDDRLVVESGMWHRSDGVRAMNALLDSGVEVDGVVALNDMLASGVMHAIQMHGLHIPDDISVVGFDNSDDSQYLSPALTSIAPGLEAVARLSVKVLKERIDGRDPNADRPGEKVFRKVASSLVVRQSTKLPIDSLVLEGHHHHHH | not soluble |
| GEVASVPLTNYLDSQYFGKIYLGTPPQEFTVLFDTGSSDFWVPSIYCKSNACKNHQRFDPRKSSTFQNLGKPLSIHYGTGSMQGILGYDTVTVSNIVDIQQTVGLSTQEPGDVFTYAEFDGILGMAYPSLASEYSIPVFDNMMNRHLVAQDLFSVYMDRNGQESMLTLGAIDPSYYTGSLHWVPVTVQQYWQFTVDSVTISGVVVACEGGCQAILDTGTSKLVGPSSDILNIQQAIGATQNQYGEFDIDCDNLSYMPTVVFEINGKMYPLTPSAYTSQDQGFCTSGFQSENHSQKWILGDVFIREYYSVFDRANNLVGLAKAI | soluble |
| GMSTPSPALFFNTVNAYQRSAAIKAAVELNVFTAISQGIESSQSLAQKCQTSERGMRMLCDYLVIIGFMTKQAEGYRLTSDSAMFLDRQSKFYVGDAIEFLLSPMITNGFNDLTAAVLKGGTAISSEGTLSPEHPVWVQFAKAMSPMMANPAQLIAQLVNENKIEPLKVLDISASHGLFGIAVAQHNPNAEIFGVDWASVLEVAKENARIQGVASRYHTIAGSAFEVDYGNDYDLVLLPNFLHHFDVATCEQLLRKIKTALAVEGKVIVFDFIPNSDRITPPDAAAFSLVMLATTPNGDAYTFAEYESMFSNAGFSHSQLHSLPTTQQQVIVAYK | soluble |
| MSLASLRVLALACLPLFAVLHADAKTLLGKVKRATGMGVGEGPSVAKKPKYTATVPGFTPPSGDQRMNEFMAVDTSGEFMRHLYIEEGRTVCASATSRNRRPTSESPHSDDVVVVEGMLRGRPETRVHAMFDGFQGRHSAMWLAQNVMNYLNDLRDVNEEEITRQFERMDGDLRAANLPGGSSALIIFVRYEKKPTEARVVGRQIVPEGAKEFTSVAEALGGPLMPVVAMNFRRDPRAAKGIYTIHVASLGNSRCVLKSGRTAIHLSTPHTASSHKERHRVQAAGGVFTTVNGELLLGGVVPMTRAFGSFDFKKGGQGKLQQDLVSAVPDVTTFFAYPGDDIVAGTAGAFAHFRSHAAIAAAIALYPVSPETVLDAAEGHHHHHH | soluble |
| MNHTSDTALLIVNLGTPEAPTAAAVRRYLGEFLSDRRVVSIPPLFWKPLLHMVILPIRGPRSASKYAKVWLQEGSPLSVYTRRIAEGLTQHLPDWRVAWAMRYGAPALTKALDALQAQQVRRIVILPLYPQYSTTTTASVQDVVEAWCKRTPQVQVECIQDYAEDPAWVAAVAASIRRHWQAHGRSEKLMFSFHGLPQRVANNGDPYPQRCQV | not soluble |
| FEKVYHLKLSIKGITPQIWRRIQVPENYTFLDLHKAIQAVMDWEDYHLHEFEMVNPKTGMLDKIGAEGDDFDAFGGPLVSEKKAKLSDYFTLENKEALYTYDFGDNWQVKVRLEKILPRKEGVEYPICTAGKRAAVPEDSGGVWGYEEMLEVLKDSEHEEYEDTVLWLGDDFDPEYFDPKDVS | not soluble |
| GKNMDTSAEPADVQANVSDSSRIEQEAIGMIEDFYEAYAASFMSTGKEALALGDSIKQKFLTKELIEKVDRLIEATDADPIIRAQDLGENDMKTLSVKHLNDNWYEVNYTSAKGSQYERAVSIPVRVVNVDGQYLIDDITPEN | soluble |
| MSVNGAFSPCVVIPCYNHGAMMASVLVRLAPLALPVFIVDDGSDAATQHVLNLLAAENDGVTLIRLANNSGKGAAVMRGIEAVAQAGFSHALQVDADGQHQIEDAPLLLDEAKTHPDCLISGRPRYDDSVPKSRLYGRYVTHVWVWIETLSLSIKDSMCGFRVYPVAATVSLLSRKSLGRRMDFDTEIMVRLYWAGTPSRFIETAVTYPENGLSHFDALHDNLRISWMHTRLFFGMLPRIPVLLMRQRQQHWAGVSERKGLLGMRFMLAVYQRLGRGVFTLFLWPVIAFYWLTGRTARKASQSWLRQIGEYAHQQDILLPKPLNSYHHFLRFGQAMLDKIASWRGDLHWGRDIDFAPGAQEAIEHGRQKGQLILASHLGDIEVCRALAPQVSGLVINALVFTENSQRFKQVLEEIAPQAGVNLIPVSNIGPDTAIMLQQKLDAGEWVAIVGDRTAVHRQRGGVRRVVWSPFLGKEAPFPQGPFVLAAALRCPVLLMFVIREQKKLRVYCEPFADSITLPRPTRQQALQQVVDRYAERLAHYALKSPLDWFNFFDFWSLPDDDGRTAGKKESLEHHHHHH | not soluble |
| MGSDKIHHHHHHMAKVVISGYYGFDNLGDEAVLFSILKTLRELQIGIRIEVLSNNPSQTAEIYRVTAANRWKLGEVYHALKDSDMLISGGGSLLQDVTGWKSLVYYLGVIWLARFLGKPVFFYAQGIGPVNTPLGRLLMRWIVNKVNYITVRDESSRQDLAEMKISRPPVEVTADPVLGLEEKYVDKKIGQAILQEVGLDLSIERKMVGISVREWQGLGEYKEVVAELCDKLCRVGYQVVFLPMHSPDDLETSREVAAMMEQPAVVLEGHYSVVEMASLIANMDLLIGMRLHALILAAVMHVPPVAISYDPKIDRFMGLLGKTAATPVDRPQFAELWQAVEEIIYEPWQVREELMQQVEPLRQRAQASAVLGLKVLEKSLHNGPAAKYL | not soluble |
